The values below come from patent publication US20230257460A1 (Eli Lilly, published 2023).

The target in assay [1] is T1, Mouse INSL5 (mouse).
T1 construct: Bought two-chain peptide (Phoenix Pharmaceuticals Cat #035-40); also called mouse insulin-like peptide-5; mouse INSL5 peptide
T1 chain 1: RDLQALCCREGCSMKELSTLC
T1 chain 2: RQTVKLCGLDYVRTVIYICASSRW
Put plainly: SPR (Biacore 8K), antibody captured on Protein A, INSL5 peptide as analyte, 37 C. The procedure: (§1) Human INSL5 (Phoenix Pharmaceuticals Cat #035-70A) and mouse INSL5 (Phoenix Pharmaceuticals 035-40) are reconstituted at 0.5 (99 μM) or 1 mg/mL (195 μM) in DMSO, respectively. […] The antibodies of Example 1, 2, or a negative control are prepared by diluting them to 1 μg/mL in 1×HBS-EP+ buffer.
(§2) The experiment is conducted at 25° C. as well as at 37° C. and initiated with 5 start-up cycles of injecting 1×HBS-EP+ buffer. Then in each cycle, the antibody is captured onto flow cell 2 of channels 1-8 at 10 μL/min for 20 seconds. Next, 180 μL of the respective INSL5 peptide sample is individually injected across flow cells 1 and 2 for 180 seconds at 60 μL/min and then let dissociate for 1200 seconds at 60 μL/min flow rate. The surface is regenerated by injecting two 15 second pulses of 10 mM glycine-HCl pH 1.5 (BR-1003-54) at 30 μL/min. After a stabilization period of 60 seconds at a flow rate of 60 μL/min the next cycle is started.
(§3) The resulting sensorgrams are analyzed using Biacore 8K Evaluation Software). 1:1 binding kinetics model fitting is used to calculate the binding kinetic parameters association rate (ka), dissociation rate (kd), and equilibrium dissociation constant (KD).
For orientation: In SPR one partner is held on a chip, and binding of the other changes the refractive index at the surface.

The target in assay [2] is T2, Human INSL5 (human).
T2 construct: also called human insulin-like peptide-5; human INSL5 peptide
T2 chain 1: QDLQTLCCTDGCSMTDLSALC
T2 chain 2: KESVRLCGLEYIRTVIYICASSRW
Described as above. The method, then: as §1, §2, §3

The target in assay [3] is T1, Mouse INSL5. The assay is described as follows: SPR (Biacore 8K), antibody captured on Protein A, INSL5 peptide as analyte, 25 C. The procedure: as §1, §2, §3
Assay [4] concerns the target T2, Human INSL5. The assay is described as above. The method, then:
as §1, §2, §3

B1: Antibody I (antibody, V domains shown)
VH: QSVEESGGRLVTPGTPLTLTCTASGFSLSSYDMGWVRQTPGEGLEWVGTISAGGYTYYAHWAKGRFTISKSSTTVDLKMTSLTTEDTATYFCARERWNYDRSGGAGAGYFDLWGPGTLVTVSS
VL: DVVMTQTASPVSAAVGGTVTINCQASQSITSSYLSWYQQKPGQPPKLLIYPAANLASGVPSRFKGSGSGTQFTLTISGVQCDDAATYYCLYGYFSSSIDFAFGGGTEVVVRG
The term Kd denotes a measure of binding affinity in units of concentration. A high value points to weaker binding. Broadly, the koff is a measure of how fast the partners let go of each other. One may read the kon as a measure of how fast the partners come together. A low value points to slow association. Take B1: the equilibrium dissociation constant (Kd) was 0.0067 nM in assay [1], 0.11 nM in assay [2], 0.0046 nM in assay [3] and 0.041 nM in assay [4]. In addition, the off-rate (koff) in assay [1] was 0.00015 s⁻¹; in assay [2] it was 0.0026 s⁻¹; in assay [3], 5.4e-05 s⁻¹; in assay [4] it was 0.00036 s⁻¹. For the same molecule, the on-rate constant (kon) stood at 2.3e+07 M⁻¹ s⁻¹ in assay [1], 2.4e+07 M⁻¹ s⁻¹ in assay [2], 1.2e+07 M⁻¹ s⁻¹ in assay [3] and 8.8e+06 M⁻¹ s⁻¹ in assay [4].

B2: Antibody II (antibody, V domains shown)
VH: QSVEESGGGLVTPGGSLTLTCTVSGIDLTTYAMGWVRQAPGEGLEWIGIIGGGGRTYYAAWAKGRFTISKTSTTVDLRITSPATEDTATYFCVRGGDFFDLWGPGTLVTVSS
VL: AQVLTQTPASVSAAVGGTVTIKCQASEDISKYLSWYQQKPGQRPKLLIYYVSNLEFGVPSRFKGSGSGTEYTLTISDLECDDAATYYCHQGYTGVNVENVFGGGTEVVVRG
Turning to B2, the dissociation constant Kd in assay [1] is 0.014 nM; in assay [2], 0.081 nM; in assay [3], 0.0061 nM; in assay [4], 0.021 nM. Further, the koff was 0.00072 s⁻¹ in assay [1], 0.0033 s⁻¹ in assay [2], 0.00011 s⁻¹ in assay [3] and 0.00034 s⁻¹ in assay [4]. The kon in assay [1] was 5.1e+07 M⁻¹ s⁻¹; in assay [2] it was 4e+07 M⁻¹ s⁻¹; in assay [3], 1.8e+07 M⁻¹ s⁻¹; in assay [4] it was 1.6e+07 M⁻¹ s⁻¹.
